Earlier results as cited in patent publication US8618048B2, “Insulin analogues of prolonged activity” (Instytut Biotechnologii I Antybiotyków, priority 2008, dated 2013).

Conditions: background statement

Substance: unmodified natural insulin: unmodified natural insulin
- isoelectric point: 5.4
